Residue numbers refer to the chain shown, from its start.
T1: FcγRIIa (human, UniProt P12318)
T1 chain: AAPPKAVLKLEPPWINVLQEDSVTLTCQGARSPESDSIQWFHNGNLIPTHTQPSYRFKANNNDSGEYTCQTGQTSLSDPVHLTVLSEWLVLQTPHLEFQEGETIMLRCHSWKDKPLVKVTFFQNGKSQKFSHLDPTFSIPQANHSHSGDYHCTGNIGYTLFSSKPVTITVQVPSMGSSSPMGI

T2: VEGF165 (human, UniProt P15692)
T2 chain: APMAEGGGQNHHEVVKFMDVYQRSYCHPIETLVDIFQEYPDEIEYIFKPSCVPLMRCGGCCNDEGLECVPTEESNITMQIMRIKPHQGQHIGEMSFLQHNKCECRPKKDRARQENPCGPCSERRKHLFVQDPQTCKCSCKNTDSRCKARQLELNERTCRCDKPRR

B1: Q-SBL-111 (antibody)
chain 1: not shown
chain 2: not shown
chain 3: EVQLVESGGGLVQPGGSLRLSCAASGYTFTNYGMNWVRQAPGKGLEWVGWINTYTGEPTYAADFKRRFTFSLDTSKSTAYLQMNSLRAEDTAVYYCAKYPHYYGSSHWYFDVWGQGTLVTVSSASTKGPSVFPLAPSSKSTSGGTAALGCLVKDYFPEPVTVSWNSGALTSGVHTFPAVLQSSGLYSLSSVVTVPSSSLGTQTYICNVNHKPSNTKVDKKVEPKSCDKTHTCPPCPAPELLGGPSVFLFPPKPKDTLMISRTPEVTCVVVDVSHEDPEVKFNWYVDGVEVHNAKTKPREEQYNSTYRVVSVLTVLHQDWLNGKEYKCKVSNKALPAPIEKTISKAKGQPREPQVCTLPPSRREMTKNQVSLWCLVKGFYPSDIAVEWESNGQPENNYKTTPPVLDSDGSFFLYSKLTVDKSRWQQGNVFSCSVMHEALHNHYTQKSLSLSPGK
chain 4: not shown
B2: Q-SBL-109 (antibody)
chain 1: not shown
chain 2: not shown
chain 3: B1 chain 3
chain 4: not shown
B3: Q-SBL-131 (antibody)
chain 1: not shown
chain 2: not shown
chain 3: B1 chain 3 with R362E, D405F
chain 4: not shown
B4: Q-SBL-114 (antibody)
chain 1: not shown
chain 2: not shown
chain 3: B1 chain 3 with R362E, D405H
chain 4: not shown
B5: Q-SBL-130 (antibody)
chain 1: not shown
chain 2: not shown
chain 3: B1 chain 3 with R362E, D405F
chain 4: not shown
B6: Q-SBL-103 (antibody)
chain 1: not shown
chain 2: not shown
chain 3: B1 chain 3 with R362E, E363R
chain 4: not shown
B7: Q-SBL-136 (antibody)
chain 1: not shown
chain 2: not shown
chain 3: B1 chain 3 with R362E, K415T
chain 4: not shown
B8: Q-SBL-115 (antibody)
chain 1: not shown
chain 2: not shown
chain 3: B1 chain 3 with R362E, E363R
chain 4: not shown
B9: Q-SBL-116 (antibody)
chain 1: not shown
chain 2: not shown
chain 3: B1 chain 3 with R362K
chain 4: not shown
B10: Q-SBL-117 (antibody)
chain 1: not shown
chain 2: not shown
chain 3: B1 chain 3 with R362K
chain 4: not shown
B11: Q-SBL-113 (antibody)
chain 1: not shown
chain 2: not shown
chain 3: B1 chain 3
chain 4: not shown
B12: Q-SBL-135 (antibody)
chain 1: not shown
chain 2: not shown
chain 3: B1 chain 3 with R362E, K415V
chain 4: not shown
B13: Q-SBL-104 (antibody)
chain 1: not shown
chain 2: not shown
chain 3: B1 chain 3 with D405H
chain 4: not shown
B14: Q-SBL-101 (antibody)
chain 1: not shown
chain 2: not shown
chain 3: B1 chain 3
chain 4: not shown
B15: Q-SBL-129 (antibody)
chain 1: not shown
chain 2: not shown
chain 3: B1 chain 3 with R362E, D405F
chain 4: not shown
B16: Q-SBL-112 (antibody)
chain 1: not shown
chain 2: not shown
chain 3: B1 chain 3
chain 4: not shown
B17: Q-SBL-137 (antibody)
chain 1: not shown
chain 2: not shown
chain 3: B1 chain 3 with R362E, K415S
chain 4: not shown
B18: Q-SBL-110 (antibody)
chain 1: not shown
chain 2: not shown
chain 3: B1 chain 3
chain 4: not shown
B19: Q-SBL-102 (antibody)
chain 1: not shown
chain 2: not shown
chain 3: B1 chain 3 with R362E, D405H
chain 4: not shown
B20: Q-SBL-105 (antibody)
chain 1: not shown
chain 2: not shown
chain 3: B1 chain 3 with E363R
chain 4: not shown
B21: Q-SBL-127 (antibody)
chain 1: not shown
chain 2: not shown
chain 3: B1 chain 3 with R362E, D405F
chain 4: not shown
B22: Q-SBL-106 (antibody)
chain 1: not shown
chain 2: not shown
chain 3: B1 chain 3 with R362E, E363R, D405H
chain 4: not shown

Molecular target: T1, FcγRIIa
Assay: BLI

Binder	Kd [nM]
B1	2040
B2	2200
B3	1620
B4	1860
B5	1720
B6	1130
B7	1970
B8	1970
B9	2340
B10	2550
B11	2140
B12	1380
B13	1870
B14	2460
B15	1670
B16	2020
B17	2120
B18	2290
B19	1700
B20	1910
B21	1630

Each binder was assayed against FcRn (human, UniProt P55899) (assay: BLI).
Sequence of FcRn (P55899 24-297, chain 1 of 2): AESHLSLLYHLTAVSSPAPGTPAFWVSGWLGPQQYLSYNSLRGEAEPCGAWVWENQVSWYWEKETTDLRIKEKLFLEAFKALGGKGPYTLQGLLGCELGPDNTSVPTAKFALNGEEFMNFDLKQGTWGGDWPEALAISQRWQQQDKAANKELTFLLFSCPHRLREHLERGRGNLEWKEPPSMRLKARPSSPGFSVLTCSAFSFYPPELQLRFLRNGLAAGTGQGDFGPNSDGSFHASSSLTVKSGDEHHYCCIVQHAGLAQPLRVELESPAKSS
Sequence of FcRn (chain, as listed by the source, chain 2 of 2): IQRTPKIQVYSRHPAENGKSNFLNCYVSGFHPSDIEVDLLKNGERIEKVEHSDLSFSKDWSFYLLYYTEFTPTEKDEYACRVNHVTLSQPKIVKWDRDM

Binder	Kd [nM]
B1	690
B2	640
B3	670
B5	740
B7	620
B22	680
B8	690
B9	650
B11	690
B12	650
B13	680
B14	730
B15	700
B16	720
B17	580
B18	610
B19	710
B20	710
B21	750

Molecular target: T2, VEGF165
Assay: ELISA

Binder	EC50 [nM]
B11	0.154
B15	0.17
B16	0.149
B18	0.168

These binders were tested against FcγRIIIa (human, UniProt P08637) (assay: BLI).
Sequence of FcγRIIIa (P08637 17-208): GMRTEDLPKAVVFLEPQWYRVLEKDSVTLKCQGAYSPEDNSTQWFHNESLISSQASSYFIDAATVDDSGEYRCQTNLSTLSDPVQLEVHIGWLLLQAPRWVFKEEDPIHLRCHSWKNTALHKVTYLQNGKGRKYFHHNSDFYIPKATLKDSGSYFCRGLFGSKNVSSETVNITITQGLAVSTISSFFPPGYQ

Binder	Kd [nM]
B1	490
B2	340
B3	330
B4	230
B5	290
B6	220
B7	230
B8	290
B9	370
B10	360
B11	600
B12	300
B14	500
B15	290
B16	600
B17	380
B18	570
B19	420
B20	430
B21	230

The binders below were run against C1q (human, UniProt P02745) (assay: BLI).
Sequence of C1q (P02745 23-245, chain 1 of 3): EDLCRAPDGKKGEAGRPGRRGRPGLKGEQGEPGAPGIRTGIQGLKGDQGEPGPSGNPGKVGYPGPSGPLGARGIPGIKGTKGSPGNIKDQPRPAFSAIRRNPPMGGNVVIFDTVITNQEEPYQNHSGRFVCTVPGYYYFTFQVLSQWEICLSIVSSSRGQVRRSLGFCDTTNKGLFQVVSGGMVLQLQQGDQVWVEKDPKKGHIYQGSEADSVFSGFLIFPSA
Sequence of C1q (P02746 28-253, chain 2 of 3, further chain): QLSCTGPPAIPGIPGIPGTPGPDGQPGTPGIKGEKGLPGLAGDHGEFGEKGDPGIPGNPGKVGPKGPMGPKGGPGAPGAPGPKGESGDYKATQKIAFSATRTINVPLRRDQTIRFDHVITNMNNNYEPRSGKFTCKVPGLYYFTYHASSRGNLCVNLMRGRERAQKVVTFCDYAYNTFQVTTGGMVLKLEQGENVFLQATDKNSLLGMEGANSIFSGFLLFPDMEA
Sequence of C1q (P02747 29-245, chain 3 of 3, further chain): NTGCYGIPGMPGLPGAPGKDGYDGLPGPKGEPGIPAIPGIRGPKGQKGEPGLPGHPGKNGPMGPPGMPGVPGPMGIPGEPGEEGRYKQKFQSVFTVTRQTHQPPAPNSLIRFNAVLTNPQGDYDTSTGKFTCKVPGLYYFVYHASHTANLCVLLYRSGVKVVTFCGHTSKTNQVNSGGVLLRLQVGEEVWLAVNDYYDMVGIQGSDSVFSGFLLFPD

Binder	Kd [nM]
B1	30
B2	28
B3	16
B4	18
B5	17
B6	40
B8	18
B9	33
B10	40
B11	36
B14	36
B15	16
B16	32
B17	24
B19	40
B21	18
